Assay results as given in article PMC4333382, “RNA helicase A activity is inhibited by oncogenic transcription factor EWS-FLI1” (Nucleic Acids Research, 2015).

Columns and labels:
RNA helicase A (human) [1] = biological target: RNA helicase A (human) (UniProt Q08211)
RNA helicase A (human) [2] = biological target: RNA helicase A (human) (UniProt Q08211); remark: listed apart in the source
RNA helicase A (human) [3] = biological target: RNA helicase A (human) (UniProt Q08211); test: SPR; RHA amine-coupled to a CM5 chip (~1800 RU); EWS-FLI1 as analyte at 24 to 0.375 nM; HBS-P with 1-mM TCEP, 2-mM MgCl2, 0.1-M imidazole, pH 7.4; flow 100 ul/min, contact 60 s, dissociation 600 s; sample compartment at 10°C; 1:1 Langmuir model; Biacore T-200
EWS-FLI1 = biological target: T1, EWS-FLI1 (UniProt F1JVV7); test: EMSA
T1 sequence: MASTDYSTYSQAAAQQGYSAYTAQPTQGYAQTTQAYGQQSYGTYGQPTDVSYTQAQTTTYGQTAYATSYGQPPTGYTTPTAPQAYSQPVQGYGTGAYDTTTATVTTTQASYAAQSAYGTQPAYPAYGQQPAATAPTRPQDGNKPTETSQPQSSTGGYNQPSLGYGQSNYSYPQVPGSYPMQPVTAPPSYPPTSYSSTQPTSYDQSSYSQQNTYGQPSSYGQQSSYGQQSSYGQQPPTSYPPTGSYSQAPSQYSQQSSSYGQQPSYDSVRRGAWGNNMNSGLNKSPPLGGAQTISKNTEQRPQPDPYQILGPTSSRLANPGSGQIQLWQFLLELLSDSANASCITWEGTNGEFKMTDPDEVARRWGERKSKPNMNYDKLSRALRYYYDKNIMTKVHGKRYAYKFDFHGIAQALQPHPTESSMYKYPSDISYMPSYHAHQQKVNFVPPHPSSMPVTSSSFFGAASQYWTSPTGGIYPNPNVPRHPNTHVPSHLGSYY

RHA (RNA helicase A) = test: EMSA
[4] = biological target: T2, RNA helicase A (RHA, DHX9) (Homo sapiens, UniProt Q08211); test: dsRNA strand-separation gel assay; type: biochemical; conditions: 2 mM nucleotide, 2 mM MgCl2, pH 7.5, dsRNA
T2 construct: full-length, N-terminal His-tag, baculovirus / Sf9 cells, nickel IMAC and heparin purified
T2 sequence (Q08211 whole entry): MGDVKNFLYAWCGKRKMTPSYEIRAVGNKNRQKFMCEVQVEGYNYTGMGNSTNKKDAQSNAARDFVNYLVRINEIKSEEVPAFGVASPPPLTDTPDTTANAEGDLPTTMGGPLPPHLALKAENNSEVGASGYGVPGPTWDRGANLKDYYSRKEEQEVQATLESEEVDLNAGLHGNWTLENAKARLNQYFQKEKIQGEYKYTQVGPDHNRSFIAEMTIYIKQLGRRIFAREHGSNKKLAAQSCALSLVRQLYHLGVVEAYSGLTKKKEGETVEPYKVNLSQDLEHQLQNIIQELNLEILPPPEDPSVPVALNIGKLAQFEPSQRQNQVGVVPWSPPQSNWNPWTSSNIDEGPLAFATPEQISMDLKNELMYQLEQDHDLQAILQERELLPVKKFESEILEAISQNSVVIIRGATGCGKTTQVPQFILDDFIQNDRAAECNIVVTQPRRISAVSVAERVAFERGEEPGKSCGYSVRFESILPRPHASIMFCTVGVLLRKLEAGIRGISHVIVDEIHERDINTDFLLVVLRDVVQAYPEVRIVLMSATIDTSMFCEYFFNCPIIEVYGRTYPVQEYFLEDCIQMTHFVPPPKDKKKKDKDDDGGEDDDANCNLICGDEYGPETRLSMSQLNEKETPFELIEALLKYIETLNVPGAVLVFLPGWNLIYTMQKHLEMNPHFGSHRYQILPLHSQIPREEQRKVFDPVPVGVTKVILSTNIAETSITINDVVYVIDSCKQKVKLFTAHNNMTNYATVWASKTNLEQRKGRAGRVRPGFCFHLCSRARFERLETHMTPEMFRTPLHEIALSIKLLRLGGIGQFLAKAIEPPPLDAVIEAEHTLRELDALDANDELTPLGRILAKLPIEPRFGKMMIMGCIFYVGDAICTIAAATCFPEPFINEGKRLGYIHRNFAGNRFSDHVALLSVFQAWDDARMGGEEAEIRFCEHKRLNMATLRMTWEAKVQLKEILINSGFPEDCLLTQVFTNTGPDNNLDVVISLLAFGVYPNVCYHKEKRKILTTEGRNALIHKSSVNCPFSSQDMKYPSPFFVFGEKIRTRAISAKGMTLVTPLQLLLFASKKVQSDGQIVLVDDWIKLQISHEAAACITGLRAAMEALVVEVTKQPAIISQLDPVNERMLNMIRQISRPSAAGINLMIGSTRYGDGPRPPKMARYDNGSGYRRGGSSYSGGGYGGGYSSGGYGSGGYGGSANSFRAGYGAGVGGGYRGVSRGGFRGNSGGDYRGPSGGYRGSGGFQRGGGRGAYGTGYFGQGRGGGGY

Sequence of RNA helicase A (human) (Q08211 whole entry): as above

EWS-FLI1
reduction of the initial velocity of RHA helicase activity (dsRNA strand separation), 1-nM RHA with 0.5 to 10 nM EWS-FLI1 (58% reduction at 1 nM) (RNA helicase A (human) [1]): 78%
helicase activity of 1-nM RHA in the presence of 1-nM EWS-FLI1 with racemic YK-4-279 or (S)-YK-4-279 (30 uM) (RNA helicase A (human) [2]): 80%
Kd (RNA helicase A (human) [3]): 14 nM
koff (RNA helicase A (human) [3]): 0.03 s⁻¹
kon (RNA helicase A (human) [3]): 3.5e+06 M⁻¹ s⁻¹

350-nt partially double-stranded HDV RNA
Kd (EWS-FLI1): 30 nM
binding signal (fold decrease in affinity) (EWS-FLI1): 3
Kd (RHA (RNA helicase A)): 4.7 nM

Nc1ccn([C@@H]2O[C@H](COP(=O)(O)OP(=O)(O)OP(=O)(O)O)[C@@H](O)[C@H]2O)c(=O)n1 [CTP]
dsRNA strand-separation gel assay [4]: Our purified RHA utilizes ATP, CTP, Uridine triphosphate (UTP) and Guanosine triphosphate (GTP)

Nc1ncnc2c1ncn2[C@@H]1O[C@H](COP(=O)(O)OP(=O)(O)OP(=O)(O)O)[C@@H](O)[C@H]1O [ATP]
dsRNA strand-separation gel assay [4]: Our purified RHA utilizes ATP, CTP, Uridine triphosphate (UTP) and Guanosine triphosphate (GTP)
